System: MS2 coat protein
Experiment: apparent KD of MS2 coat protein; designed switch direction (-1 OFF switch, 1 ON switch): -1; higher = weaker reporter binding
How it was run: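 For each design, the apparent KD is the median over clusters of curves fitted to normalised cluster fluorescence. Clusters held RNA switches with common flanks, transcribed on Illumina chips by stalled E. coli RNA polymerase. These were titrated with SNAP-549-labelled MS2 coat protein, doubling from 0.7 or 1.5 nM to 3 µM, without input, with 200 uM small-molecule ligand, or with an oligonucleotide input.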

[1] = Eterna round: R95, input ligand: FMN 200 uM
[2] = Eterna round: R95, input ligand: microRNA oligo, concentration not stated
[3] = Eterna round: R95, input ligand: none
[4] = input ligand: microRNA oligo, concentration not stated

| Sequence | apparent KD of MS2 coat protein [2] [nM] | apparent KD of MS2 coat protein (input ligand: FMN 200 uM) [nM] | apparent KD of MS2 coat protein (input ligand: none) [nM] | further results |
| --- | --- | --- | --- | --- |
| CUGGUCCGAGGAUAUAUUAUGUGAUACAUGAGGAUCACCCAUGUAAUAUGAUGGAAGUAAAUAGAAGGCGGACUAG [Mat - Exclusion 5 - JL mod - D46] (puzzle: Exclusion 5) | 55.8 | – | – | apparent KD of MS2 coat protein [1]: 42.5 nM; apparent KD of MS2 coat protein [3]: 58.1 nM |
| CUCGGACAUGAGGAUCACCCAUGUGAGGAUAUGGUGCUAUCGUCAUUAGACGAUUGCGUUAGAAGGCAUAUUUU [LRO-Excl1-30] (puzzle: Exclusion 1) | 24.4 | – | – | – |
| UCAACGCAAGGAUAUACUUGCGGUGAUGUUCGAAAUCUUCUACUUGAGGAUCACCCAAGUAGAAGGUGCGGUGA [jl-ex2.4.65 ViennaUCT mod] (Eterna round: R97, puzzle: Exclusion 2) | – | 12.8 | 12.9 | – |
| GAAUAGAGAGGAUAUGCAAUGAAGGUAGUACGAUAUAUCUGACAUGAGGAUCACCCAUGUAGAAGGCUCAGAUC [EX2 #8] (Eterna round: R97, puzzle: Exclusion 2) | – | 29.2 | 29.3 | – |
| UAUUAGCAAGCGAGAUCCCACAUGAGGAUCACCCAUGUGCUCGUCUUAUAAAGUACUGUGACGAAAGUCACGGUACA [Sensor 3, v1 - 91 v3] (Eterna round: R97, puzzle: Sensor, turn-off variant 1) | – | 14.3 | 12.8 | – |
| UUGUAGUGAGGAUAUAUAUAGUGGUUUUAUUAAUUUUUAUUACUUGAGGAUCACCCAAGUAGAAGGCGCAAAGU [JR_Ex2_Sub071] (Eterna round: R97, puzzle: Exclusion 2) | – | 19.2 | 18.3 | – |
| GUUUUCAGACGGAGAUCCUACAUGAGGAUCACCCAUGUCUCUCUAGCUAAUUGCUCGUCUUAUUCUCCUCUGUUCUC [Elimod 38 - Jieux - Sensor, turn-off variant 1] (Eterna round: R97, puzzle: Sensor, turn-off variant 1) | – | 40 | 47.5 | – |
| UACGUGUCAGGAUAUGCGUUGGUACAGAAGUAUGGCCAACGGCAGAAGGGACAUGAGGAUCACCCAUGUCGUCG [Eternabot (L1) Solution 60] (Eterna round: R97, puzzle: Exclusion 4) | – | 139 | 26.8 | – |
| CCAUAUAACUGAGGAUAUCAUCGCCACUGACGUUGAGAAGGCAGACAUGAGGAUCACCCAUGUGAUUUCUCAAUAUUAUACAUC [Prohibition 79 - Jieux - Exclusion NG 1] (Eterna round: R96, puzzle: Exclusion NG 1) | – | 118 | 40 | apparent KD of MS2 coat protein [4]: 33.8 nM |
| CUUUUGUGAGGAUAUUAGUAGUAAAUAAAUAAAAUUACUACUGAGAAGGCACAUGAGGAUCACCCAUGUUCCUC [Salish 062 v16] (Eterna round: R97, puzzle: Exclusion 4) | – | 358 | 42.9 | – |
| AAUAACUCAGUGAGGAUAUUUGCGGGUGUUUUCGCAAAGAAGGCACAUGAGGAUCACCCAUGUCAGAGGAGCUA [Eternabot (Original) Solution 24] (Eterna round: R97, puzzle: Brourd's mod of Exclusion 4) | – | 214 | 120 | – |
| GAUUCGCGAGGAUAUACAGUCGAGUCCAUUACGUGUCUCGGACUUGAGGAUCACCCAAGUAGAAGGCGUCUCAU [salish99_ex2_r4_637] (Eterna round: R97, puzzle: Exclusion 2) | – | 55.8 | 57.8 | – |
| CCAAGCUGUGUGAGGAUAUGCUGAACCUUGGUUCAGCAGAAGGCACAUGAGGAUCACCCAUGUGAAAAGCUUGG [Mat - Exclusion 4 - JL Mod - D95] (puzzle: Brourd's mod of Exclusion 4) | 15.3 | – | – | – |
| CUAGUAUAUCAGGAUAUGAUAGUGUAUAGUAUAUCAGAAGGGAUGACAUGAGGAUCACCCAUGUUAAGGGAUGA [JR_Ex6_Sub050] (Eterna round: R97, puzzle: Exclusion 6) | – | 52.4 | 46.1 | – |
| CUAGUCCGAGGAUAUAUUAAGUGAUACAUGAGGAUCACCCAUGUAAUUUAAUGGAAAUAAAUAGAAGGCGGACUAG [Mat - Exclusion 5 - JL mod - D52] (puzzle: Exclusion 5) | 46.2 | – | – | apparent KD of MS2 coat protein [1]: 44.7 nM; apparent KD of MS2 coat protein [3]: 53.3 nM |
| AAAUAACAAGCGAGAUCCUACAUGAGGAUCACCCAUGUGCUCGUCUUAAGAAGUACUAUCACGAAAGUGAUAGUACA [Mat - Sensor v3 - turn-off var 1 - Eli Mod - D68] (puzzle: Sensor v3, turn-off variant 1) | 66 | – | – | apparent KD of MS2 coat protein [1]: 17.6 nM; apparent KD of MS2 coat protein [3]: 14.7 nM |
| UAUUAGCAAGCGAGAUCCCACAUGAGGAUCACCCAUGUAAGCAUCCAGAAUUACUGGGUGCAAAAGCUCGUCUUAUA [Winner reversed engineered 5] (Eterna round: R97, puzzle: Sensor, turn-off variant 1) | – | 29.7 | 31 | – |
| GAGUGCUGAGGAUAUACAUGAGGAUCACCCAUGUACUUCAGCUAGGAGACUAGCAUUGGUAGAAGGCAGUACUC [Mod of lroppy 22 - Jieux - Exclusion 3] (Eterna round: R97, puzzle: Exclusion 3) | – | 20.7 | 14.2 | – |

| Sequence | apparent KD of MS2 coat protein [2] [nM] | apparent KD of MS2 coat protein (input ligand: FMN 200 uM) [nM] | apparent KD of MS2 coat protein (input ligand: none) [nM] | further results |
| --- | --- | --- | --- | --- |
| GGGUCACAUGAGGAUCACCCAUGUGAGGAUAUGAUACUAUGUACUUCGGUACAUAGUAUCAGAAGGCACAUCCC [Ex1-3: 17] (puzzle: Exclusion 1) | 18.6 | – | – | – |
| AGCAAGUUAGGAUAUCUUAAAGUUAGGUGAUGUCCUGUUUGAGAGAAGGAACAUGAGGAUCACCCAUGUGGUCA [Eternabot (L2) Solution 56] (Eterna round: R97, puzzle: Exclusion 4) | – | 58.3 | 62.6 | – |
| UCACCGCAAGGAUAUACUUGCGGUGAUGCUCGAAACUUUCUACUUGAGGAUCACCCAAGUAGAAGGUGCGGUGA [jl-ex2.4.68 ViennaUCT mod] (Eterna round: R97, puzzle: Exclusion 2) | – | 12.1 | 13.1 | – |
| UUGCAGUCAUCAGGAUAUAGUAUUACGGCCAUUUAUAUUUUCAUACAUGAGGAUCACCCAUGUCGCUAGAAGGGAUUAUCGAUU [Exclusion NG 2] (Eterna round: R96, puzzle: Exclusion NG 2) | – | – | – | apparent KD of MS2 coat protein [4]: 34.5 nM |
| AUGGUUCGAUUAGGAUAUUAUAGAUUGAAUAGUAUGAUUUACAUGAGGAUCACCCAUGUUACAUUUAAGAAGGAAUCGAAUCAU [JR_ExcNG2_Sub088] (Eterna round: R96, puzzle: Exclusion NG 2) | – | 13.9 | 21.5 | apparent KD of MS2 coat protein [4]: 13.2 nM |
| AAAUUCAGAGGAUAUGCGCAUAGAUAAGACUUUUUUUUUUAACAUGAGGAUCACCCAUGUAGAAGGCUGUAAAU [Ex2 #52] (Eterna round: R97, puzzle: Exclusion 2) | – | 24 | 25.5 | – |
| AGAUCACAUGAGGAUCACCCAUGUCAGGAUAUGAUACUAUGUACUUCGGUACAUAGUAUCAGAAGGGACAUAAA [Ex1-3: 69] (puzzle: Exclusion 1) | 140 | – | – | apparent KD of MS2 coat protein [1]: 31.5 nM; apparent KD of MS2 coat protein [3]: 89.2 nM |
| AAUUUACAUGAGGAUCACCCAUGUGAGGAUAUAUGCAAAGAAGUGUUAGUAAGAAAGCAUAGAAGGCGCGUGAU [JR_Exc1_Sub041] (Eterna round: R97, puzzle: Exclusion 1) | – | 64.6 | 47.8 | – |
| GCUGGUCGAGGAUAUACAUGAGGAUCACCCAUGUGAUCAGCAGUCCUCGGACUGCAAUGUAGAAGGUGACCAGC [E3/1-B1] (Eterna round: R97, puzzle: Exclusion 3) | – | 583 | 2270 | – |
| UUAUUAUAUGUAGGAUAUGCAUAUUGUUGUUAUGCAGAAGGACAUGAGGAUCACCCAUGUAUAUUGUUGUUAUAUAUUAUAUAU [Title] (Eterna round: R96, puzzle: Exclusion NG 1) | – | 27.1 | 22.3 | apparent KD of MS2 coat protein [4]: 18.6 nM |
| GAAAAGUGAGGAUAUGGUAAAAGAAAAAGAAAAAGAAAACUCCAGAAGGCACAUGAGGAUCACCCAUGUAAAAG [salish99_ex4_r3_005] (puzzle: Exclusion 4) | 19.4 | – | – | apparent KD of MS2 coat protein [1]: 26.9 nM; apparent KD of MS2 coat protein [3]: 23.6 nM |
| GUCUCGUCAGGAUAUGACGCUACAUUUUUUUUUUAGAAGAGUCAGAAGGGACAUGAGGAUCACCCAUGUGAUUC [Ex4 - 3 - 2] (puzzle: Exclusion 4) | 167 | – | – | – |
| CUUUUGUGAGGAUAUUAGUAGUAAAUAAAUAAAAUUACUAUUGAGAAGGCACAUGAGGAUCACCCAUGUUCCUC [salish99_ex4_r3_064] (puzzle: Exclusion 4) | 30.3 | – | – | – |
| GUAUAUAGUGUGAGGAUAUGCUGGUCCUUGGAUCAGCAGAAGGCACAUGAGGAUCACCCAUGUAGUUAAAUAUA [Mat - Exclusion 4 - JL Mod - D20] (puzzle: Brourd's mod of Exclusion 4) | 30.1 | – | – | – |
| CAUGAUCUUCGGAUCAUGGACAUGAGGAUCACCCAUGUCACGAGCAGAUCUUCAUGCAAGCUUUUUGCUCGUCUUAU [Sensor v3 - Turn-off variant 1 - 38] (puzzle: Sensor v3, turn-off variant 1) | 405 | – | – | apparent KD of MS2 coat protein [1]: 28 nM; apparent KD of MS2 coat protein [3]: 29.8 nM |
| CAUACACAUGAGGAUCACCCAUGUGAGGAUAUGCGUACGUUGUCAGUAGGCGACGUGCGCAGAAGGCGCGUGUU [Mat - Mod of JL D90] (puzzle: Exclusion 1) | 46.3 | – | – | – |
| AAGAAGGCCGUAGGAUAUACAGCAAGAACGCGAGUAGAAGGACGAUACAUGAGGAUCACCCAUGUACGUGGGUAGUGCUCGUGC [Soatceri] (Eterna round: R96, puzzle: Exclusion NG 1) | – | 26 | 21.8 | apparent KD of MS2 coat protein [4]: 10.9 nM |
